According to patent US20220073598A1 (KYMAB, published 2022):
Residue numbers refer to the chain shown, from its start. One block for each binder: values may come before it.

What was measured:
[1] = target: T1, human BMP6 (Peprotech), reduced monomer on SDS-PAGE (human, UniProt P22004 397-513); assay: Western blot after reducing SDS-PAGE
T1 construct: also called reduced BMP6 monomers; 18 kDa monomer
T1 sequence: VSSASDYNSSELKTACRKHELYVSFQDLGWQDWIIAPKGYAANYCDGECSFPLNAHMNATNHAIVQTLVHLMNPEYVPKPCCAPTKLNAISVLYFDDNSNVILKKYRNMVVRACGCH
Method: (§1) 2 μg/lane purified human BMP6 (Peprotech) separated by SDS-PAGE and stained with Coomassie blue (A) under reducing (R) and non-reducing (NR) conditions and Western blots from such gels blotted onto membranes and then probed with purified human anti-BMP6 antibodies as labelled.
(§2) Since BMP6 is a disulphide linked dimer the reducing condition should create monomers on the gel instead of dimers on the non-reduced gel.

[2] = target: T2, recombinant human BMP6 (Peprotech 120-06) (human, UniProt P22004 397-513); assay: Western blot after non-reducing SDS-PAGE
T2 construct: Biotinylated and immobilised for SPR; also called hBMP6; Bone Morphogenetic Protein 6
T2 sequence: T1 sequence
Method: as §1, §2

[3] = target: T2, recombinant human BMP6 (Peprotech …); assay: HTRF competition: unlabelled antibody titrated (11 points, top 3 µM) against labelled CL-58838 (10 nM) for binding to labelled human BMP6 (32 nM)

- binding result [3]: binds
B3: CL-58722 (antibody, human IgG4 S228P, kappa, V domains shown)
VH: QVQLVESGGGLVKPGGSLRLSCAASGFTFSDYYMSWIRQAPGKGLEWVSYISISGSTIYYADSVKGRFTISRDNAKNSLFLQMNSLRAEDTAVYYCARRSSGWYDYWGQGTLVTVSS
VL: EIVLTQSPGTLSLSPGERATLSCRASQSVSSNYLAWYQQKPGQAPRLLIYGASIRATGIPDRFSGSGSGTDFTLTISRLEPEDFAVYSCHQYGSSPPTFGQGTKVEIKR

- binding result [3]: binds
B4: CL-58713 (antibody, human IgG4 S228P, kappa, V domains shown)
VH: B3 VH with S56I, K76R, F80Y
VL: B3 VL with S31Y, S88C

Second part, the binder before the results:

B1: Antibody B (antibody, human IgG1, lambda, V domains shown)
VH: QVQLVESGGGLVKPGGSLRLSCAASGFTFSSYVVHWVRQAPGKGLEWVGRIRLETHGYAAEYAASVKGRFTISRDDSKNTLYLQMNSLKTEDTAVYYCARVERSKSGFDNWGQGTLVTVSS
VL: QSVLTQPPSVSGAPGQRVTISCTGSSSNIGAGYSVHWYQQLPGTAPKLLIYGQSERPSGVPDRFSGSKSGTSASLAITGLQAEDEADYYCQSWDSSQTLVVFGGGTKLTVLG
notes: also called anti-BMP6 Antibody B
- binding result [1]: binds
- binding result [2]: binds

B2: CL-58756 (antibody, human IgG4 S228P, kappa, V domains shown)
VH: B3 VH with F80Y
VL: B3 VL with S88C
- binding result [3]: binds
